Measured values reported in patent US20250051463A1 (AstraZeneca / MedImmune, published 2025).

Experiments:
[1] = target: T1, human CD123 (IL3Rα) on cells (human, UniProt P26951 19-378); assay: flow cytometry on EOL-1 cells, geometric mean
T1 construct: whole, on cells; also called human IL3Rα expressed on 293 cells; AD293hIL3Rα
Procedure: On the day of plating, cells were spun down at 1500 rpm for 3 minutes, counted, and resuspended to a final concentration of 1×10⁶ cells/ml. […] Plates were incubated at 4° C. for 30 minutes. Following incubation plates were washed 3 times by spinning down at 1500 rpm for 3 minutes, flicked and 100 μl of FACS buffer were added. […] Flow data was analyzed in FlowJo software.
Target sequence in this assay (P26951 19-378): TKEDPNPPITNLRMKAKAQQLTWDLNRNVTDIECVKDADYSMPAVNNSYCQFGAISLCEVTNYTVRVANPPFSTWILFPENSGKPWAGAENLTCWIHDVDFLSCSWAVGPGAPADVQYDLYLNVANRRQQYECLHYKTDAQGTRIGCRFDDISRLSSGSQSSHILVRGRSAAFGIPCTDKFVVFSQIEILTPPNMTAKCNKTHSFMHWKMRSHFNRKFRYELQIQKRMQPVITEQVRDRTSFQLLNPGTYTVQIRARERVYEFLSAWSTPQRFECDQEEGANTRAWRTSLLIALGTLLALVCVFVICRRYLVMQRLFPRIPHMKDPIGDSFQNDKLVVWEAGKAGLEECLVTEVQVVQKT

[2] = target: T1, human CD123 (IL3Rα) on cells; assay: flow cytometry on THP-1 CD123(+dox) cells, Geo MFI
Procedure: (§1) THP-1 cells were transfected with an IL3Rα expression construct under the control of a doxycycline inducible promoter. THP-1 cells were maintained in DMEM containing 10% heat-inactivated fetal bovine serum (FBS) and were cultured in a humidified atmosphere of 5% CO₂ and at a temperature of 37° C. […] (Dox) inducible cells were stimulated with 1 μg/ml dox overnight before use. […] On the day of plating, cells were spun down at 1500 rpm for 3 minutes, counted, and resuspended to a final concentration of 1×10⁶ cells/ml. Two hundred μl of cells were plated in wells of 96 well microtiter plates. The plates were spun down at 1500 rpm for 3 minutes and flicked to remove media. One hundred μl of FACS buffer (PBS+2% FBS) was added to each well. […] The antibody concentration started at 12 μg/ml followed by six 1:3 dilutions (no antibody control was also run). The plates were incubated at 4° C. for 30 minutes. Following incubation, the plates were washed 3 times by spinning down at 1500 rpm for 3 minutes, flicked and 100 μl of FACs buffer was added. Alexa 647 secondary antibody (goat anti-human IgG (H+L)) was added at 1:1000 dilution in 100 μl followed by 30 minute 4° C. incubation. The plates were washed as above. […] Cells were analyzed on a BD Bioscience LSRII by collecting 10,000 cells. Flow data was analyzed in FlowJo software.
Target sequence in this assay (P26951 19-378): as above

[3] = target: T1, human CD123 (IL3Rα) on cells; assay: flow cytometry on THP-1 CD123 (no dox) cells, Geo MFI
Procedure: as §1
Target sequence in this assay (P26951 19-378): as above

human IL-5Rα = target: T2, human IL-5Rα (human, UniProt Q01344 21-342, limits assumed); assay: biolayer interferometry, HT12-GL on the sensor, Sample ID: hIL5Ra-his in solution
T2 construct: Soluble analyte in the Octet assay; construct not described; also called hIL5-Rα; human IL-5Ra sample
T2 sequence (looked up): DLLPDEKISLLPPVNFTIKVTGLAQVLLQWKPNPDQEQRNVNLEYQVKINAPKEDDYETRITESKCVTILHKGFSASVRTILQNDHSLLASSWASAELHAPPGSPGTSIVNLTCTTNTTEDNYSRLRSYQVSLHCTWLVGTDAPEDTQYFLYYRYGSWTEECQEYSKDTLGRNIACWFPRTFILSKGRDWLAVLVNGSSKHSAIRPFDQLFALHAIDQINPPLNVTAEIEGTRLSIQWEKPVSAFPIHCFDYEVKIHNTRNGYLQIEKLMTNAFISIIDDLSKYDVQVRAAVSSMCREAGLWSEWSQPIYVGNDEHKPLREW
Procedure: Biolayer interferometry binding experiments were performed using an Octet RED384 instrument, with all measurements made at 30° C. AHC biosensor probes were soaked in kinetics buffer (PBS pH 7.2+0.02% Tween-20, 0.1% BSA, 0.05% sodium azide) for 10 minutes, followed by baseline signal measurement in kinetics buffer for 60 seconds. […] For binding to hIL3-Rα, the antibody-loaded biosensor tips were dipped in binding buffer for 60 sec (baseline), followed by immersion in a solution containing dilutions of hIL3-Rα (10-0.16 μg/mL) for 300 sec (association), and subsequent immersion in kinetics buffer for 400 sec (dissociation). For binding to hIL5-Rα and GM-CSFRa, all steps were the same except the concentration of antigen was increased (50-1.56 μg/mL) and the dissociation step was decreased to 300 sec. The signal from a buffer only reference sample was subtracted, and all curves were fit with a 1:1 binding model to determine KD values.

[4] = target: T1, human CD123 (IL3Rα) on cells; assay: flow cytometry with Alexa 647 labelled antibody on Ad293 cells expressing human IL3Ra, geometric mean
Procedure: AD293 cells were maintained in DMEM (Dulbecco's Modified Eagle Medium) containing 10% heat-inactivated fetal bovine serum (FBS) and were cultured in a humidified atmosphere of 5% CO2 and at a temperature of 37° C. On the day of plating, cells were spun down at 1500 rpm for 3 minutes, counted, and resuspended to a final concentration of 0.3×10⁶ cells/ml. Two hundred μl of cells were plated to wells of 96 well microtiter plate. Plates were spun down at 1500 rpm for 3 minutes and flicked to remove media. One hundred μl of FACs buffer (PBS [Phosphate Buffer Saline]+2% FBS) was added to the wells. Plates were then spun again as above followed by addition of primary antibody in 100 μl of FACS buffer. […] Antibody concentration started at 12 μg/ml followed by six 1:3 dilutions (no antibody control was also run). Plates were incubated at 4° C. for 30 minutes. Following incubation plates were washed 3 times by spinning down at 1500 rpm for 3 minutes, flicked and 100 μl of FACS buffer were added. Following a final wash, 100 μl of FACS buffer containing live/dead DAPI (diamidino-2-phenylindole) stain was added to the plates. […] Flow data was analyzed in FlowJo software.

[5] = target: T3, cynomolgus IL3Rα (CD123), sample in solution for biolayer interferometry (cynomolgus); assay: kinetic binding curves, antibody on the sensor, cyIL3Ra in solution; the sheet prints Temperature: 25 C
T3 construct: Soluble analyte in the Octet assay; construct not described; also called cynomolgus CD123 sample

- EC50 (read off the curve) [1]: ~0.04 µg/mL
- EC50 (read off the curve) [2]: ~0.3 µg/mL
- EC50 (read off the curve) [3]: ~0.2 µg/mL
- binding result (human IL-5Rα): no binding
- EC50 (read off the curve) [4]: ~1 µg/mL
- Kd [5]: 0.656 nM
B1: HT12-GL antibody (antibody, human IgG1, kappa, V domains shown)
VH: EVQLLESGGGLVQPGGSLRLSCAASGFTFNIYAMTWVRQAPGKGLEWVSGISAGGDSTYYADSVKGRFTISRDNSKNTLYLQMNSLRAEDTAVYYCAKDRGYYYGMDVWGQGTTVTVSS
VL: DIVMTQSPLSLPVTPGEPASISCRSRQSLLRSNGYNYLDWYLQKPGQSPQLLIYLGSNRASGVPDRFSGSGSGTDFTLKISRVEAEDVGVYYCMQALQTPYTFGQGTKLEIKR
notes: elsewhere unlabeled with a secondary antibody; also called HT12-GL mAb; CD123 mAb
